Paper PMC8969299 (Chemical Engineering Journal, 2022)

Target: SARS-CoV-2 (2019-nCoV) spike (S) protein RBD-His recombinant protein (SARS-CoV-2, UniProt P0DTC2)
Assay: FRET or BRET

B1: hACE2 mimic peptide beacon (COVID19-PEB) (peptide)
peptide: IEEQAKTFLDKFNHEAEDLFYQSSLASWK
  binding result: binds
